Assay results as given in patent US20140057830A1 (COMPLIX, published 2014).

Columns and labels:
human Flt3L [1] = target: T1, human Flt3L (human, UniProt P49771 27-160, limits assumed); assay: isothermal titration calorimetry, 37 C, triplicate
T1 construct: Biotinylated form used in biopanning and phage ELISA; unlabelled in ITC and crystallography; also called hFlt3L; Flt3 ligand
T1 sequence (looked up): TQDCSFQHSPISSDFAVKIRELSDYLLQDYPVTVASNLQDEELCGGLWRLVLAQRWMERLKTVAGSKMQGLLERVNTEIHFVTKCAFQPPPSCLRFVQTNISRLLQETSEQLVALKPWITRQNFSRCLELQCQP
Description: (§1) The binding of Alphabody hFlt3L_cl4 to the target hFlt3L was tested by isothermal titration calorimetry (ITC) in order to determine its dissociation constant (KD), thermodynamic parameters (ΔH, ΔS) and binding stoichiometry. Prior to the measurements, Alphabody and target samples were dialyzed against 20 mM HEPES buffer containing 150 mM NaCl, pH 7.4. The ITC measurements were performed in triplicate at a temperature of 37° C. In each experiment, hFlt3L, which exists as a stable dimer in solution, was loaded into the cell (at concentrations 3.0 μM, 6.5 μM and 7.0 μM of hFlt3L dimer, respectively) and hFlt3L_cl4 was loaded in the syringe (at concentrations of 41.35 μM, 89.62 μM and 89.62 μM, respectively). […] This implies that, since the concentrations of hFlt3L were given for the dimeric complex (hFlt3L)₂, only one hFlt3L_cl4 Alphabody binds to one hFlt3L dimer.

human Flt3L [2] = target: T1, human Flt3L; assay: isothermal titration calorimetry, 37 C, triplicate; hFlt3L dimer in the cell, Alphabody in the syringe
Description: as §1

B1: hFlt3L_cl4 (designed binder)
chain: HMSIEEIQKQIAAIQKQIAAIQKQIYAMTGGSGGGSGGGSGGGSGMSIEEIQKQIAAIQKQIAAIQKQIYAMTGGSGGGSGGGSGGGSGMSIEEIQDQILNIQWQIHDIQQQIIVMTPGG
For B1, the Ka (human Flt3L [1]) was 4.95e+06 M⁻¹, the ΔG (human Flt3L [1]) was -9.5 kcal/mol and the ΔH (human Flt3L [1]) was -16.6 kcal/mol. For the same binder, the ΔS (human Flt3L [1]) was -22.9 cal/(mol·K) and the Kd (human Flt3L [2]) was 202 nM.
